Assay results from PMC11811267 (Journal of Separation Science, 2025).

Assays:
[1] = Autosampler (re-injection) stability at 4°C for 24 h; assay type: in vitro ADME; conditions: autosampler (AS) 4°C, triplicate, 2D-LC-MS/MS
Experimental: (§3) The stability tests of all insulins were performed at two concentration levels (193 and 7752 pg/mL). One set of tests was performed with artificial plasma and the other set with artificial plasma containing 1% PIC. Each concentration level was tested in triplicate. These QC samples were quantified using an artificial plasma calibration curve without PIC, and the obtained concentrations were compared with the nominal concentrations of the low quality control (LQC) and high quality control (HQC), which were set to 100%. To evaluate the stability of insulins in artificial plasma containing 1% PIC, we considered the concentration measured at time zero as the baseline (100%). All subsequent changes in concentration were calculated relative to this initial measurement.
(§4) Short‐term stability, long‐term stability, and freeze‐thaw stability were evaluated in this study. LQC and HQC samples were stored at room temperature and in a refrigerator for 3, 6, and 24 h to assess short‐term (bench‐top) stability and at 4°C in the autosampler for 24 h to assess re‐injection stability.

[2] = Long-term stability in artificial plasma at −80°C; assay type: in vitro ADME; conditions: triplicate, 2D-LC-MS/MS
Experimental: as §3, §4

[3] = Long-term stability in artificial plasma at −20°C; assay type: in vitro ADME; conditions: triplicate, 2D-LC-MS/MS
Experimental: as §3, §4

[4] = Short-term (bench-top) stability at room temperature in artificial plasma with and without 1% PIC; conditions: triplicate, 2D-LC-MS/MS
Experimental: (§1) A mixed standard solution containing all insulins at a concentration of 10,000 ng/mL was obtained by diluting the stock solutions with artificial plasma. This stock solution was further diluted with artificial plasma to produce a series of calibration standards at the following concentrations: 50, 100, 150, 250, 500, 1,000, 1500, 2500, 5000, 10 000, and 15 000 pg/mL. Quality control (QC) samples were prepared in artificial plasma at 200, 800, 3000, and 9000 pg/mL and analyzed prior to real human plasma samples. For method validation, four concentration levels were prepared in artificial plasma at 50, 125, 6000, and 13 000 pg/mL. Two concentration levels (193 and 7752 pg/mL) were evaluated for stability testing.
(§2) Each concentration level was tested in triplicate.

[5] = Freeze-thaw stability in artificial plasma after storage at −80°C; assay type: in vitro ADME; conditions: stored at −80°C, triplicate, 2D-LC-MS/MS; for 24 h, change (%): cycle at 24 h; for 48 h, change (%): cycle at 48 h; for 72 h, change (%): cycle at 72 h
Experimental: as §3, §4

[6] = Insulin concentrations in patient plasma samples (2D-LC-MS/MS); assay type: in vivo, human
Experimental: Patient samples were collected in K2EDTA tubes, and centrifuged, and 250 µL aliquots were either analyzed immediately or stored at −80°C for analysis the following day. A previously published method [12] was used for sample preparation, including protein precipitation, conversion of analytes to anions, and micro SPE (µSPE) using Oasis MAX multimodal sorbent (Waters) in a 96‐well design. […] QuanRecovery with MaxPeak 700 µL plates (Waters) were used for elution after SPE and subsequent injection for 2D‐LC‐MS/MS analysis.
To assess the clinical applicability of the proposed method, 30 patient samples (16 males and 15 females) were analyzed. Plasma samples (collected in K2EDTA tubes) were supplied to the Department of Forensic Medicine.

[7] = Short-term stability in refrigerator (4°C) in artificial plasma with and without 1% PIC; conditions: triplicate, 2D-LC-MS/MS
Experimental: as §1, §2

[8] = Adsorption test in three types of glass vials; assay type: physicochemical; conditions: 15 ng/mL in 6.7% acetic acid in water:methanol (60:40, v/v), UHPLC-MS/MS, Figure S10
Experimental: We prepared stock solutions of all insulins, which were then transferred to three different types of glass vials and analyzed by LC‐MS/MS. For the adsorption test, a mixture of all insulins at a concentration of 15 ng/mL was prepared in a solvent containing 6.7% acetic acid in a water:methanol mixture (60:40, v/v). The mixture was then transferred to three types of vials and analyzed by UHPLC‐MS/MS. This experiment was performed prior to the optimization of the chromatographic method.

[9] = artificial plasma (BZ273) with 1% PIC, 193 pg/mL, % of concentration at time zero
[10] = artificial plasma (BZ273) with 1% PIC, 7752 pg/mL, % of concentration at time zero
[11] = artificial plasma (BZ273) without PIC, 7752 pg/mL, % of nominal concentration
[12] = artificial plasma (BZ273) with 1% PIC, 193 pg/mL, % of concentration at time zero (=100%)
[13] = artificial plasma (BZ273) with 1% PIC, 7752 pg/mL, % of concentration at time zero (=100%)
[14] = artificial plasma (BZ273) without PIC, 193 pg/mL, % of nominal concentration (=100%)
[15] = artificial plasma (BZ273) without PIC, 7752 pg/mL, % of nominal concentration (=100%)

For Human insulin, the “24 h AS, change (%)” value ([1]; extracted samples from artificial plasma with 1% PIC, 193 pg/mL, % of concentration at time zero (=100%)) was 105.9%, the “24 h AS, change (%)” value ([1]; extracted samples from artificial plasma without PIC, 7752 pg/mL, % of nominal concentration (=100%)) was 100.5% and the “1 week, change (%)” value ([2]; 1 week, artificial plasma (BZ273) without PIC, 7752 pg/mL, % of nominal concentration) was 100.1%. The “2 weeks, change (%)” value [2, 9] was 105.8%, the “2 weeks, change (%)” value [2, 10] was 111.9% and the “2 weeks, change (%)” value [2, 11] was 106.0%. For the same substance, the “1 week, change (%)” value [3, 9] was 70.1%, the “1 week, change (%)” value [3, 10] was 54.9% and the “2 weeks, change (%)” value [3, 10] was 61.8%. The “2 weeks, change (%)” value ([3]; artificial plasma (BZ273) without PIC, 193 pg/mL, % of nominal concentration) was 106.3%, the “3 weeks, change (%)” value ([3]; 3 weeks, artificial plasma (BZ273) with 1% PIC, 7752 pg/mL, % of concentration at time zero) was 25.9% and the “0 h, change (%)” value [4, 12] was 100.0%. For the same substance, the “24 h, change (%)” value [4, 12] was 72.1%, the “0 h, change (%)” value [4, 13] was 100.0% and the “6 h, change (%)” value [4, 13] was 86.4%. The “24 h, change (%)” value [4, 13] was 67.4%, the “0 h, change (%)” value [4, 14] was 100.1% and the “0 h, change (%)” value [4, 15] was 99.1%. For the same substance, the “6 h, change (%)” value [4, 15] was 95.1%, the “24 h, change (%)” value [5, 10] was 111.6% and the “24 h, change (%)” value [5, 11] was 100.2%. For the same substance, the “48 h, change (%)” value [5, 9] was 116.6%, the “48 h, change (%)” value [5, 11] was 94.6% and the “72 h, change (%)” value [5, 10] was 92.9%. For the same substance, the “72 h, change (%)” value [5, 11] was 87.1%, the “Concentration range (pg/mL) in patient samples” value ([6]; human plasma (K2EDTA), 30 patient samples from the Department of Forensic Medicine (unexplained deaths), range over quantified samples) was 219.1 to 6065.2 pg/mL and the “Concentration in a real patient sample” value ([6]; human plasma, single patient sample of Figure 2) was “LLOQ”. For the same substance, the “3 h 4°C, change (%)” value [7, 12] was 100.4%, the “24 h 4°C, change (%)” value ([7]; artificial plasma (BZ273) with 1% PIC, 193 pg/mL, 24 h, % of concentration at time zero (=100%)) was 87.9% and the “6 h 4°C, change (%)” value [7, 13] was 98.6%. The “6 h 4°C, change (%)” value [7, 14] was 105.6%, the “3 h 4°C, change (%)” value [7, 15] was 90.2% and the “Difference in concentration between vial types (adsorption to container surfaces)” value [8] was “up to 50%”.
